According to article PMC12525431 (International Journal of Molecular Sciences, 2025):

Target: sTREM-1 (UniProt Q9NP99-2 21-150, labelled with Alexa Fluor 488 (Protein Labeling Kit))
Test: MST; sTREM-1 labelled with Alexa Fluor 488; peptide in 16 concentrations by sequential dilution; 30 min in the dark at room temperature; Monolith NT.115, 8% IR laser power; at least three replicates
Details: both partners purified

sTREM-1, sequence (Q9NP99 other isoform, or with tags, fused parts or gaps): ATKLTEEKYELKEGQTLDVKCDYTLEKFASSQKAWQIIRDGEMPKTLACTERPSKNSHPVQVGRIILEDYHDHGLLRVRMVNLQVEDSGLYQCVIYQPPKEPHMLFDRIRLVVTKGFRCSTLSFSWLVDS

B1: peptide N7 (16aa peptide of Hsp70) (peptide)
peptide: SDNQPGVLIQVYEGEK
notes: Hsp70, human; Found by MALDI-TOF in a trypsin hydrolysate of recombinant human Hsp70, then synthesised; also called N7 peptide; Hsp70 N7 peptide; source: synthetic peptide (Fmoc, purified by HPLC)
  Kd: 1.6 nM
